Test results from article PMC7116848 (Nature, 2019).

Key:
Mgm1 (truncated s-Mgm1) = target: T1, Mgm1 (truncated s-Mgm1) (Thermochaetoides thermophila, UniProt G0SGC7); experiment: isothermal titration calorimetry; assay type: binding
T1 sequence (G0SGC7 219-912): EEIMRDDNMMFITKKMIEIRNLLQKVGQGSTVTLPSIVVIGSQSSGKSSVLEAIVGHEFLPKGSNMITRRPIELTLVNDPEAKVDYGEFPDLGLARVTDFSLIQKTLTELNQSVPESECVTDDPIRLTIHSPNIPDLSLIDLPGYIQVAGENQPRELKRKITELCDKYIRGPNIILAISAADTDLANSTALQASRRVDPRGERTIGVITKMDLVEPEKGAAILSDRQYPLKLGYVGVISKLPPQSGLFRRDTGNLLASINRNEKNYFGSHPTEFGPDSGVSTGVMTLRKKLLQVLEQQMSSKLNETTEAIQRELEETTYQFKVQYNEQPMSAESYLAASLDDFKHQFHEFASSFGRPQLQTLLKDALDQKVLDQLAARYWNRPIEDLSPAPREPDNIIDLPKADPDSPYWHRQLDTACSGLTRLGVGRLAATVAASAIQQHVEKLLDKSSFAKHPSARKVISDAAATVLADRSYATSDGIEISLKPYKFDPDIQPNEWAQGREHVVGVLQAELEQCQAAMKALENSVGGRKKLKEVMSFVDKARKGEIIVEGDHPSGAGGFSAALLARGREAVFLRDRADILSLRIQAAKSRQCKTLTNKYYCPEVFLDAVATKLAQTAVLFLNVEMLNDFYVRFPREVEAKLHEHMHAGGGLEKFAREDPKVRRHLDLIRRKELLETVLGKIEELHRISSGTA

AUC = target: the molecule itself; experiment: AUC
crystal structure = target: the molecule itself; experiment: crystal structure

`Nc1nc2c(ncn2[C@@H]2O[C@H](COP(=O)(O)OP(=O)(O)OP(O)(O)=S)[C@@H](O)[C@H]2O)c(=O)[nH]1` [GTPγS] showed a Kd (Mgm1 (truncated s-Mgm1)) of 9 ± 3 µM.

B1: Chaetomium thermophilum Mgm1 (amino acids 219-912), truncated s-Mgm1 isoform (domain or fragment, UniProt G0SGC7 219-912, looked up)
chain: EEIMRDDNMMFITKKMIEIRNLLQKVGQGSTVTLPSIVVIGSQSSGKSSVLEAIVGHEFLPKGSNMITRRPIELTLVNDPEAKVDYGEFPDLGLARVTDFSLIQKTLTELNQSVPESECVTDDPIRLTIHSPNIPDLSLIDLPGYIQVAGENQPRELKRKITELCDKYIRGPNIILAISAADTDLANSTALQASRRVDPRGERTIGVITKMDLVEPEKGAAILSDRQYPLKLGYVGVISKLPPQSGLFRRDTGNLLASINRNEKNYFGSHPTEFGPDSGVSTGVMTLRKKLLQVLEQQMSSKLNETTEAIQRELEETTYQFKVQYNEQPMSAESYLAASLDDFKHQFHEFASSFGRPQLQTLLKDALDQKVLDQLAARYWNRPIEDLSPAPREPDNIIDLPKADPDSPYWHRQLDTACSGLTRLGVGRLAATVAASAIQQHVEKLLDKSSFAKHPSARKVISDAAATVLADRSYATSDGIEISLKPYKFDPDIQPNEWAQGREHVVGVLQAELEQCQAAMKALENSVGGRKKLKEVMSFVDKARKGEIIVEGDHPSGAGGFSAALLARGREAVFLRDRADILSLRIQAAKSRQCKTLTNKYYCPEVFLDAVATKLAQTAVLFLNVEMLNDFYVRFPREVEAKLHEHMHAGGGLEKFAREDPKVRRHLDLIRRKELLETVLGKIEELHRISSGTA
B1 showed a Kd (AUC) of 1 µM.

B2: Seleno-methionine substituted Chaetomium thermophilum Mgm1 (amino acids 219-912) (domain or fragment, UniProt G0SGC7 219-912, looked up)
chain: EEIMRDDNMMFITKKMIEIRNLLQKVGQGSTVTLPSIVVIGSQSSGKSSVLEAIVGHEFLPKGSNMITRRPIELTLVNDPEAKVDYGEFPDLGLARVTDFSLIQKTLTELNQSVPESECVTDDPIRLTIHSPNIPDLSLIDLPGYIQVAGENQPRELKRKITELCDKYIRGPNIILAISAADTDLANSTALQASRRVDPRGERTIGVITKMDLVEPEKGAAILSDRQYPLKLGYVGVISKLPPQSGLFRRDTGNLLASINRNEKNYFGSHPTEFGPDSGVSTGVMTLRKKLLQVLEQQMSSKLNETTEAIQRELEETTYQFKVQYNEQPMSAESYLAASLDDFKHQFHEFASSFGRPQLQTLLKDALDQKVLDQLAARYWNRPIEDLSPAPREPDNIIDLPKADPDSPYWHRQLDTACSGLTRLGVGRLAATVAASAIQQHVEKLLDKSSFAKHPSARKVISDAAATVLADRSYATSDGIEISLKPYKFDPDIQPNEWAQGREHVVGVLQAELEQCQAAMKALENSVGGRKKLKEVMSFVDKARKGEIIVEGDHPSGAGGFSAALLARGREAVFLRDRADILSLRIQAAKSRQCKTLTNKYYCPEVFLDAVATKLAQTAVLFLNVEMLNDFYVRFPREVEAKLHEHMHAGGGLEKFAREDPKVRRHLDLIRRKELLETVLGKIEELHRISSGTA
modifications: seleno-methionine substituted for methionine
B2: binds (crystal structure).
